The record followed here is publication PMC5700101.

The target in this test is PBD–GFP (PBD of Polo, amino acids 350–576, C-terminally fused to GFP10) (UniProt P52304). Put plainly: BRET. As to conditions: live HEK293T cells; fixed amount of Luc-KD vector, increasing PBD–GFP vector; Map205 fragment co-transfected; p-value < 0.0001; parent: 0.197. In general terms: In BRET a luciferase serves as donor, and the signal depends on an acceptor being close.

Regarding “Luc-KD (KD–IDL of Polo, amino acids 1–349, N-terminally fused to RLucII), KD^WT (from UniProt P52304) NLS7A”, the other: BRET50 came to 2.49 GFP/Luc.
